Laboratory results as given in US20020157120A1 (University of California, published 2002).

Molecular target: the molecule itself
Test: Self-association (oligomer dissociation), inferred from FCS translational diffusion at about 1 nM dsRed
Description: Fluorescence was collected through the same objective, a dichroic mirror, and 525+/−50 nm (citrine) or 580+/−50 nm (dsRed) filters and focused by a 150-mm achromat into an optical fiber ([…]). The fluorescence signal was detected by a fiber-coupled avalanche photodiode (APD; SPCM-AQ-141-FC; EG & G, Salem, Mass.). The APD signal was processed by using a correlator card (ALV5000; ALV Laser, Germany), and correlation curves were fitted by using the following function (Schwille et al., supra, 2000):
Within experimental uncertainty, our estimated rotational time (i.e., protein volume) agrees with the tetramer hypothesis of dsRed configuration.

B1: Discosoma red fluorescent protein, dsRed (other)
chain: MRSSKNVIKEFMRFKVRMEGTVNGHEFEIEGEGEGRPYEGHNTVKLKVTKGGPLPFAWDILSPQFQYGSKVYVKHPADIPDYKKLSFPEGFKWERVMNFEDGGVVTVTQDSSLQDGCFIYKVKFIGVNFPSDGPVMQKKTMGWEASTERLYPRDGVLKGEIHKALKLKDGGHYLVEFKSIYMAKKPVQLPGYYYVDSKLDITSHNEDYTIVEQYERTEGRHHLFL
notes: Wild-type dsRed (CLONTECH DNA) cloned into pRSETB, made in JM109(DE3) E. coli and purified on NiNTA-agarose; The entries describe self-association of dsRed subunits; also called red fluorescent protein (dsRed) from coral; not shown: N-terminal tag from vector pRSETB (protein purified by nickel chelate chromatography)
In the case of B1, the Kd is reported as no more than 1 nM.
